According to US20180339057A1 (Novo Nordisk, published 2018):

T1: human MIC-1 receptor (hGFRAL, GDNF family receptor alpha like), full length (human, UniProt Q6UXV0 19-394)
T1 sequence (looked up): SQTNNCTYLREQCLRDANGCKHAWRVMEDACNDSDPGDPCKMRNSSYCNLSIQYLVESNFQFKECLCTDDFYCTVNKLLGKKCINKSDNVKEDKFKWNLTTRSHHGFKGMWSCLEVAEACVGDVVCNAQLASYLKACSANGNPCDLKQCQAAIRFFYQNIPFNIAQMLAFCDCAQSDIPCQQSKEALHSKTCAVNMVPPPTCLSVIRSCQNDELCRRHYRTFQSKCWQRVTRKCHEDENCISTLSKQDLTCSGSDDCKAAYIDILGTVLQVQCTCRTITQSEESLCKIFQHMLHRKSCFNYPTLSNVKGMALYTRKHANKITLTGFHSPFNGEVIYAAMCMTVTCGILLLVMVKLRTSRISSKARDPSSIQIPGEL


The binders below were run against T1, human MIC-1 receptor (hGFRAL, GDNF …) (assay: cell-based or functional assay).

Emax (%)	pERK EC50 (nM)	Binder
100%	0.5 nM	(AEE)3AES-MIC-1-Δ1-3 (ligand) AEEAEEAEEAESGDHCPLGPGRCCRLHTVRASLEDLGWADWVLSPREVQVTMCIGACPSQFRAANMHAQIKTSLHRLKPDTVPAPCCVPASYNPMVLIQKTDTGVSLQTYDDLLAKDCHCI
100%	0.5 nM	AAPEDEETPEQE-MIC-1-Δ1-3 (ligand) AAPEDEETPEQEGDHCPLGPGRCCRLHTVRASLEDLGWADWVLSPREVQVTMCIGACPSQFRAANMHAQIKTSLHRLKPDTVPAPCCVPASYNPMVLIQKTDTGVSLQTYDDLLAKDCHCI
100%	0.5 nM	(GEPS)5-MIC-1(SEQ ID NO: 1) (ligand) GEPSGEPSGEPSGEPSGEPSARNGDHCPLGPGRCCRLHTVRASLEDLGWADWVLSPREVQVTMCIGACPSQFRAANMHAQIKTSLHRLKPDTVPAPCCVPASYNPMVLIQKTDTGVSLQTYDDLLAKDCHCI
100%	0.3 nM	TSESATPESGPGTSESATPESGPG-MIC-1(R2A,N3E) (ligand) TSESATPESGPGTSESATPESGPGAAEGDHCPLGPGRCCRLHTVRASLEDLGWADWVLSPREVQVTMCIGACPSQFRAANMHAQIKTSLHRLKPDTVPAPCCVPASYNPMVLIQKTDTGVSLQTYDDLLAKDCHCI
100%	0.3 nM	AEEAES-MIC-1-Δ1-3 (ligand) AEEAESGDHCPLGPGRCCRLHTVRASLEDLGWADWVLSPREVQVTMCIGACPSQFRAANMHAQIKTSLHRLKPDTVPAPCCVPASYNPMVLIQKTDTGVSLQTYDDLLAKDCHCI
100%	0.5 nM	AAPEDEETPEQEGSGSGSGSGS-MIC-1-Δ1-3 (ligand) AAPEDEETPEQEGSGSGSGSGSGDHCPLGPGRCCRLHTVRASLEDLGWADWVLSPREVQVTMCIGACPSQFRAANMHAQIKTSLHRLKPDTVPAPCCVPASYNPMVLIQKTDTGVSLQTYDDLLAKDCHCI
100%	0.5 nM	AAPDEGTEEETEGSGSGSGSGS-MIC-1-Δ1-3 (ligand) AAPDEGTEEETEGSGSGSGSGSGDHCPLGPGRCCRLHTVRASLEDLGWADWVLSPREVQVTMCIGACPSQFRAANMHAQIKTSLHRLKPDTVPAPCCVPASYNPMVLIQKTDTGVSLQTYDDLLAKDCHCI
100%	0.5 nM	MIC-1(R2A,N3E,H18E) (ligand) AAEGDHCPLGPGRCCRLETVRASLEDLGWADWVLSPREVQVTMCIGACPSQFRAANMHAQIKTSLHRLKPDTVPAPCCVPASYNPMVLIQKTDTGVSLQTYDDLLAKDCHCI
70%	0.3 nM	MIC-1(R2A,N3E,M57E) (ligand) AAEGDHCPLGPGRCCRLHTVRASLEDLGWADWVLSPREVQVTMCIGACPSQFRAANEHAQIKTSLHRLKPDTVPAPCCVPASYNPMVLIQKTDTGVSLQTYDDLLAKDCHCI
100%	0.5 nM	MIC-1(R2A,N3E,R67E) (ligand) AAEGDHCPLGPGRCCRLHTVRASLEDLGWADWVLSPREVQVTMCIGACPSQFRAANMHAQIKTSLHELKPDTVPAPCCVPASYNPMVLIQKTDTGVSLQTYDDLLAKDCHCI
100%	0.8 nM	MIC-1(R2A,N3E,L68E) (ligand) AAEGDHCPLGPGRCCRLHTVRASLEDLGWADWVLSPREVQVTMCIGACPSQFRAANMHAQIKTSLHREKPDTVPAPCCVPASYNPMVLIQKTDTGVSLQTYDDLLAKDCHCI
100%	0.7 nM	MIC-1(R2A,N3E,A30E) (ligand) AAEGDHCPLGPGRCCRLHTVRASLEDLGWEDWVLSPREVQVTMCIGACPSQFRAANMHAQIKTSLHRLKPDTVPAPCCVPASYNPMVLIQKTDTGVSLQTYDDLLAKDCHCI
100%	0.5 nM	MIC-1(R2A,N3E,K69E) (ligand) AAEGDHCPLGPGRCCRLHTVRASLEDLGWADWVLSPREVQVTMCIGACPSQFRAANMHAQIKTSLHRLEPDTVPAPCCVPASYNPMVLIQKTDTGVSLQTYDDLLAKDCHCI
100%	0.3 nM	MIC-1(R2A,N3E,K107E) (ligand) AAEGDHCPLGPGRCCRLHTVRASLEDLGWADWVLSPREVQVTMCIGACPSQFRAANMHAQIKTSLHRLKPDTVPAPCCVPASYNPMVLIQKTDTGVSLQTYDDLLAEDCHCI
100%	0.7 nM	MIC-1(R2A,N3E,L105E) (ligand) AAEGDHCPLGPGRCCRLHTVRASLEDLGWADWVLSPREVQVTMCIGACPSQFRAANMHAQIKTSLHRLKPDTVPAPCCVPASYNPMVLIQKTDTGVSLQTYDDLEAKDCHCI
100%	0.4 nM	MIC-1(R2A,N3E,P11E) (ligand) AAEGDHCPLGEGRCCRLHTVRASLEDLGWADWVLSPREVQVTMCIGACPSQFRAANMHAQIKTSLHRLKPDTVPAPCCVPASYNPMVLIQKTDTGVSLQTYDDLLAKDCHCI
100%	0.6 nM	MIC-1(R2A,N3E,R21E) (ligand) AAEGDHCPLGPGRCCRLHTVEASLEDLGWADWVLSPREVQVTMCIGACPSQFRAANMHAQIKTSLHRLKPDTVPAPCCVPASYNPMVLIQKTDTGVSLQTYDDLLAKDCHCI
100%	0.3 nM	MIC-1(R2A, N3E) (ligand) AAEGDHCPLGPGRCCRLHTVRASLEDLGWADWVLSPREVQVTMCIGACPSQFRAANMHAQIKTSLHRLKPDTVPAPCCVPASYNPMVLIQKTDTGVSLQTYDDLLAKDCHCI
100%	0.4 nM	MIC-1(R2A,N3E,R53E) (ligand) AAEGDHCPLGPGRCCRLHTVRASLEDLGWADWVLSPREVQVTMCIGACPSQFEAANMHAQIKTSLHRLKPDTVPAPCCVPASYNPMVLIQKTDTGVSLQTYDDLLAKDCHCI
100%	0.3 nM	AES-MIC-1-Δ1-3 (ligand) AESGDHCPLGPGRCCRLHTVRASLEDLGWADWVLSPREVQVTMCIGACPSQFRAANMHAQIKTSLHRLKPDTVPAPCCVPASYNPMVLIQKTDTGVSLQTYDDLLAKDCHCI
100%	0.6 nM	MIC-1(R2A,N3E,P85E) (ligand) AAEGDHCPLGPGRCCRLHTVRASLEDLGWADWVLSPREVQVTMCIGACPSQFRAANMHAQIKTSLHRLKPDTVPAPCCVPASYNEMVLIQKTDTGVSLQTYDDLLAKDCHCI
100%	0.4 nM	MIC-1(R2A,N3E,A47E) (ligand) AAEGDHCPLGPGRCCRLHTVRASLEDLGWADWVLSPREVQVTMCIGECPSQFRAANMHAQIKTSLHRLKPDTVPAPCCVPASYNPMVLIQKTDTGVSLQTYDDLLAKDCHCI
100%	0.3 nM	MIC-1(R2A,N3E,A54E) (ligand) AAEGDHCPLGPGRCCRLHTVRASLEDLGWADWVLSPREVQVTMCIGACPSQFREANMHAQIKTSLHRLKPDTVPAPCCVPASYNPMVLIQKTDTGVSLQTYDDLLAKDCHCI
100%	0.5 nM	(AEE)5AES-MIC-1-Δ1-3 (ligand) AEEAEEAEEAEEAEEAESGDHCPLGPGRCCRLHTVRASLEDLGWADWVLSPREVQVTMCIGACPSQFRAANMHAQIKTSLHRLKPDTVPAPCCVPASYNPMVLIQKTDTGVSLQTYDDLLAKDCHCI
100%	0.4 nM	AASPAGSPTSTEEGTSESATPESGPG-MIC-1(SEQ ID NO: 1) (ligand) AASPAGSPTSTEEGTSESATPESGPGARNGDHCPLGPGRCCRLHTVRASLEDLGWADWVLSPREVQVTMCIGACPSQFRAANMHAQIKTSLHRLKPDTVPAPCCVPASYNPMVLIQKTDTGVSLQTYDDLLAKDCHCI
100%	0.8 nM	(AEE)6AES-MIC-1 (ligand) AEEAEEAEEAEEAEEAEEAESGDHCPLGPGRCCRLHTVRASLEDLGWADWVLSPREVQVTMCIGACPSQFRAANMHAQIKTSLHRLKPDTVPAPCCVPASYNPMVLIQKTDTGVSLQTYDDLLAKDCHCI
100%	0.4 nM	(AEE)2AES-MIC-1-Δ1-3 (ligand) AEEAEEAESGDHCPLGPGRCCRLHTVRASLEDLGWADWVLSPREVQVTMCIGACPSQFRAANMHAQIKTSLHRLKPDTVPAPCCVPASYNPMVLIQKTDTGVSLQTYDDLLAKDCHCI
100%	0.7 nM	AASPAGSPTSTEEGTSESATPESGPG-MIC-1-Δ1-3 (ligand) AASPAGSPTSTEEGTSESATPESGPGGDHCPLGPGRCCRLHTVRASLEDLGWADWVLSPREVQVTMCIGACPSQFRAANMHAQIKTSLHRLKPDTVPAPCCVPASYNPMVLIQKTDTGVSLQTYDDLLAKDCHCI
100%	0.4 nM	SPAGSPTSTEEGTSESATPESGPG-MIC-1(SEQ ID NO: 1) (ligand) SPAGSPTSTEEGTSESATPESGPGARNGDHCPLGPGRCCRLHTVRASLEDLGWADWVLSPREVQVTMCIGACPSQFRAANMHAQIKTSLHRLKPDTVPAPCCVPASYNPMVLIQKTDTGVSLQTYDDLLAKDCHCI
